Experimental data taken from patent publication US20260028400A1 (AIMED BIO, published 2026).
Where a chain is given by its changes, count along the chain named.

B1: P015044-vc-PAB-MMAE (antibody, IgG1, V domains shown)
VH: EVQLLESGGGLVQPGGSLRLSCAASGFTFSNYAMHWVRQAPGKGLEWVSIIYPDDDTRYNPSFRGRFTISRDNSKNTLYLQMNSLRAEDTAVYYCARDLLYAGDYWGQGTLVTVSS
VL: QSVLTQPPSASGTPGQRVTISCGGNNIESKAVHWYQQLPGTAPKLLIYANNKRPSGVPDRFSGSKSGTSASLAISGLRSEDEADYYCQSYDSNKVVFGGGTKLTVL
modifications: maleimidocaproyl-valine-citrulline-p-aminobenzyloxycarbonyl monomethyl auristatin E on cysteine sulfhydryls of reduced disulfides; positions not given; average 3.0 drugs per antibody
B2: P015042v1 (antibody, V domains shown)
VH: EVQLLESGGGLVQPGGSLRLSCAASGFTFSDYAMSWVRQAPGKGLEWVSVISSDGGSIYYADSVKGRFTISRDNSKNTLYLQMNSLRAEDTAVYYCAKDRSRDMEVDFDYWGQGTLVTVSS
VL: QSVLTQPPSASGTPGQRVTISCSGSSSNIGSNYVTWYQQLPGTAPKLLIYDSSQRPSGVPDRFSGSKSGTSASLAISGLRSEDEADYYCGTWDYSLNGYVFGGGTKLTVL
notes: Tested as complete IgG; Parent of the variants P015042v1-1 to P015042v1-6
B3: P015042v1-6 (antibody, V domains shown)
VH: B2 VH with G55K
VL: B2 VL with S52K, G98A
notes: Variant of P015042v1, tested as IgG
B4: P015002 (antibody, V domains shown)
VH: EVQLLESGGGLVQPGGSLRLSCAASGFTFSDYSMSWVRQAPGKGLEWVSGISHNGGSTYYADSVKGRFTISRDNSKNTLYLQMSSLRAEDTAVYYCARDVSRWSKTRWSYDNAMDVWGQGTLVTVSS
VL: B2 VL with S23T, T35S, Q38R, D51S, S52D, Q54N, G90A, Y94A, N97S, G98A
B5: P015005 (antibody, V domains shown)
VH: B4 VH
VL: B2 VL with T35N, D51S, S52D, Q54H, T91S, Y94S, G98A, F101L
B6: P015018 (antibody, V domains shown)
VH: EVQLLESGGGLVQPDGSMRLICAASGFTFSSYAKHWVRQAPGKGLEWVSEIYTSGSTNYNPSLKSRFTISRDNSKNTLYLQMNSLRAEDTAVYYCARDTWWEGYFDLWGQGTLVTVSS
VL: EIVLTQSPGTLSLSPGERATLSCRASQSVSTYLAWYQQKPGQAPRLLIYDASSLESGIPDRFSGSGSGTDFTLTISRLEPEDFAVYYCQQSYNLPHTFGQGTKVEIK
B7: P015012 (antibody, V domains shown)
VH: EVQLLESGGGLVQPGGSLRLSCAASGFTFSGYSMSWVRQAPGKGLEWVSGISYGGSSISYADSVKGRFTISRDNSKNTLYLQMNSLRAEDTAVYYCAKPVRRWARFRLSYDDAMDVWGQGTLVTVSS
VL: B2 VL with S31N, Y33A, T35N, D51A, S52N, Q54H, Y94S, N97S
B8: P015001 (antibody, V domains shown)
VH: EVQLLESGGGLAQPGGSLRLSCAASGFTFSNYDMSWVRQAPGKGPEWVSGIYSGNSNTYYADSVKGRFTISRDNSKNTLYLQMNSLRAEDTAVYYCARDLQYTEWAGFDYWGQGTLVTVSS
VL: B2 VL with Y33D, S52D, Q54K, G90A, T91A, Y94D, N97S

target: T1, ROR1 expressed on cell surface (Jeko-1 cell line, AMB-LC-0003T and AMB-LC-0002T patient-derived lung cancer … (human, UniProt Q01973 30-937)); assay: cell-based or functional assay
T1 sequence (Q01973 30-937): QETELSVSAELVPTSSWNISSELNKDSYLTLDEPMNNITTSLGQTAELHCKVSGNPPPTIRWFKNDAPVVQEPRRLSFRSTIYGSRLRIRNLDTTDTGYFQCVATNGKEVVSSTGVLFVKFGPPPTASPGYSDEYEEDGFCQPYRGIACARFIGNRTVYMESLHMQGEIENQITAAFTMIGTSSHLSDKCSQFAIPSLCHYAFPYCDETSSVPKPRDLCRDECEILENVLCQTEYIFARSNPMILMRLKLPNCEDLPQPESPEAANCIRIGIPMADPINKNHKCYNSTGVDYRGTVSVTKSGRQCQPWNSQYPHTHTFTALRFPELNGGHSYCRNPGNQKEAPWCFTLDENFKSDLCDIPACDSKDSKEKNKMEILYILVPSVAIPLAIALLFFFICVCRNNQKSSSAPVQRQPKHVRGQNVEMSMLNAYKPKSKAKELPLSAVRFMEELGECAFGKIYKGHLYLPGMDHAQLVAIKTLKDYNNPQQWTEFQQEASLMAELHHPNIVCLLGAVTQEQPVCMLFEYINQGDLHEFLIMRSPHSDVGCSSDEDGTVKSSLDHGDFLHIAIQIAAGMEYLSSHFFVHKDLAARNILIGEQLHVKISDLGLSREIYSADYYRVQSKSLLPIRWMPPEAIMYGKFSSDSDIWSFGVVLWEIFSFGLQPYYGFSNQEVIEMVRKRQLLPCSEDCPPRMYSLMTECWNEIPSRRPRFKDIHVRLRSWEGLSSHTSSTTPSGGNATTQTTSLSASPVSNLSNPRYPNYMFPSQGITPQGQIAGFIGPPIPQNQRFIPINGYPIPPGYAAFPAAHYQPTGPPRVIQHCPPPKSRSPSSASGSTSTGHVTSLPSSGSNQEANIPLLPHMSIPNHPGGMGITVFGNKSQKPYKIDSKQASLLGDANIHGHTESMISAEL

| Fold Change of IC50, AMB-LC-0002T/AMB-LC-0003T [fold] | IC50 (nM), spheroid volume, AMB-LC-0002T (low ROR1 expression) [nM] | IC50 (nM), spheroid volume, AMB-LC-0003T (high ROR1 expression) [nM] | Binder |
| --- | --- | --- | --- |
| 39.7 | 261 | 6.59 | B1 |

target: T1, ROR1 expressed on cell surface (Jeko-1 …); assay: flow cytometry on Jeko-1 cells
Procedure: (§1) Before therapeutic use of anti-ROR1 antibodies, it is very important to determine whether the antibody binds to the antigen expressed on the cell surface. The cell binding ability of anti-ROR1 antibodies developed by the present inventors was measured using FACS in Jeko-1 cell line and AMB-LC-0003T patient-derived cells, which were confirmed to have high ROR1 expression. Each cell type was dispensed at 1×10⁵ cells/100 μl FACS buffer per well in a 96-well plate.
(§2) Cell binding ability analysis was performed using anti-ROR1 candidate antibodies P015004, P015042, P015043, P015044, P015042v1 with improved biological and physical properties, and P015042v1-6, one of modified materials thereof. Each antibody was serially diluted 10-fold from 100 nM to 10 nM, 1 nM, 100 pM, 10 pM, and 1 pM and the cells were treated therewith. After reaction at 4° C. for 30 minutes, washing was performed twice. PE-labeled goat anti-human IgG Fc PE (ThermoFisher; 12-4998-82) as a secondary antibody was diluted at a ratio of 1:100 in FACS buffer, and 100 μl thereof was dispensed per well. Reaction again at 4° C. for 30 minutes and washing twice were performed. Finally, 100 μl of FACS buffer was dispensed per well, followed by mixing well with a pipette and then flow cytometry using a NovoCyte flow cytometer (Agilent). Analysis was performed using GraphPad Prism 9.3.1, and EC₅₀ values were obtained using a log (agonist) vs. response-Variable slope nonlinear graph model.

| EC50 [nM] | Binder |
| --- | --- |
| 0.014 | B2 |
| 0.011 | B3 |

target: T2, mouse ROR1 (mouse, UniProt Q9Z139 30-403, limits assumed); assay: ELISA, IgG on coated mouse ROR1, OD450
T2 construct: also called mouse ROR1 protein
Procedure: (§3) A 96-well plate was coated at 4° C. for 16 hours with each of human ROR1 and mouse ROR1 proteins at a concentration of 2 μg/ml and then blocked using […]. […] After washing with PBST and distilled water, binding at room temperature for 1 hour using a goat-derived HRP-conjugated anti-human antibody (Invitrogen, 31482, Goat anti-Human IgG F(ab′)₂ Secondary Antibody, HRP) and then washing again using PBST and distilled water were performed. After color development by adding TMB substrate solution (Thermo Scientific, 34029, 1-Step™ Ultra TMB-ELISA Substrate Solution), the color reaction was stopped with stop solution (Invitrogen, SS04, ELISA Stop Solution), and the absorbance was measured at OD 450 nm. It was confirmed that the anti-ROR1 antibody of the present invention and the modified antibody thereof with improved biological and physical properties […] to human ROR1 and mouse ROR1 (FIG. 2).

T2 sequence (Q9Z139 30-403 limits assumed): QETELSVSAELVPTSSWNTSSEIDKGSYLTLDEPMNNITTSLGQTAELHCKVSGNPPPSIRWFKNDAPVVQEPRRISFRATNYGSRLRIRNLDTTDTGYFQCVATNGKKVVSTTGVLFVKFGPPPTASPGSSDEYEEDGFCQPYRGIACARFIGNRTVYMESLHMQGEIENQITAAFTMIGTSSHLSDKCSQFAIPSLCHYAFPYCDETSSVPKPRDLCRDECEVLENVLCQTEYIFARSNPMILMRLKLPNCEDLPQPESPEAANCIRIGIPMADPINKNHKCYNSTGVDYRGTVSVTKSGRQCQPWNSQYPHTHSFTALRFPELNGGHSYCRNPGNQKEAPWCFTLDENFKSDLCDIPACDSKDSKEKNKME

| EC50 (read off the curve) [nM] | Binder |
| --- | --- |
| ~3 | B4 |
| ~1 | B3 |
| ~1 | B5 |

target: T3, Ig+FZD (human); assay: ELISA, IgG on coated domain, OD450
T3 construct: Ig-like plus frizzled domains, His tag; also called IF domain; human ROR1-immunoglobulin-frizzled domain
Procedure: (§4) ELISA was performed to analyze the binding domain using the IgG antibody of the selected clone.
(§5) After washing with PBST and distilled water, binding at room temperature for 1 hour using a goat-derived HRP-conjugated anti-human antibody (Invitrogen, 31482, Goat anti-Human IgG F(ab′)₂ Secondary Antibody, HRP) and then washing again using PBST and distilled water were performed. After color development by adding TMB substrate solution (Thermo Scientific, 34029, 1-Step™ Ultra TMB-ELISA Substrate Solution), the color reaction was stopped with stop solution (Invitrogen, SS04, ELISA Stop Solution), and the absorbance was measured at OD 450 nm. The anti-ROR1 antibody clone binding to each domain was analyzed through ELISA (FIG. 3).

T3 sequence (Q01973 30-305): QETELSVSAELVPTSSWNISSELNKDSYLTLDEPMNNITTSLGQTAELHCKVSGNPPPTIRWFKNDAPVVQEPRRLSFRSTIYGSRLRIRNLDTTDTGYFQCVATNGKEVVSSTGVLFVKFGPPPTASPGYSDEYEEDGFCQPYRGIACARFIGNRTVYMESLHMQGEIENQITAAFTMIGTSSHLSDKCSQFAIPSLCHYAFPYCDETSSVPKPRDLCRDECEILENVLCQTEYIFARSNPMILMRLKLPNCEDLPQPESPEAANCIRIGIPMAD

| EC50 (read off the curve) [nM] | Binder |
| --- | --- |
| ~10 | B6 |
| ~2 | B7 |

target: T4, Ig-like (human, UniProt Q01973); assay: ELISA, IgG on coated domain, OD450
T4 construct: Ig-like domain, His tag; also called Ig-like domain; human ROR1-immunoglobulin domain
Procedure: as §4, §5

T4 sequence (Q01973 39-151 limits assumed): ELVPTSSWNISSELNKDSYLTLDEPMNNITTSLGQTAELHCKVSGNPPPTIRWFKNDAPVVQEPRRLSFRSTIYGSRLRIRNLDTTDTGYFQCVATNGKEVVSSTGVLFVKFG

| binding result | Binder |
| --- | --- |
| no binding (tested: 300 nM) | B6 |
| no binding (tested: 300 nM) | B7 |
| no binding (tested: 300 nM) | B4 |
| no binding (tested: 300 nM) | B5 |

target: T5, FZD (human, UniProt Q01973); assay: ELISA, IgG on coated domain, OD450
T5 construct: frizzled domain, His tag; also called Frizzled domain; human ROR1-frizzled domain
Procedure: as §4, §5

T5 sequence (Q01973 165-305 limits assumed): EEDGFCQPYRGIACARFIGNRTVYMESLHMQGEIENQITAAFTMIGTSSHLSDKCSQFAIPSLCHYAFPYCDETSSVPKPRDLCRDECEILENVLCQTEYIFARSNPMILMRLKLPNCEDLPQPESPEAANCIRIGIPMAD

| binding result | Binder |
| --- | --- |
| no binding (tested: 300 nM) | B6 |
| no binding (tested: 300 nM) | B8 |

target: T6, FZD+KRD (human, UniProt Q01973); assay: ELISA, IgG on coated domain, OD450
T6 construct: frizzled plus kringle domains, His tag; also called FK domain; human ROR1-frizzled-kringle domain
Procedure: as §4, §5

T6 sequence (Q01973 165-395 limits assumed): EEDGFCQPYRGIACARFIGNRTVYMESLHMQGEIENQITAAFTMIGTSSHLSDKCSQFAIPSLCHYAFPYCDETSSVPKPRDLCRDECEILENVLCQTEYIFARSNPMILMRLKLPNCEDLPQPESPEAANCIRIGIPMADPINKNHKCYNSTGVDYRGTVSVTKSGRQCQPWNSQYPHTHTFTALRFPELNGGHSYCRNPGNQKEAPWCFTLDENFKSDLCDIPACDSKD

| binding result | EC50 (read off the curve) [nM] | Binder |
| --- | --- | --- |
| no binding (tested: 300 nM) |  | B6 |
| no binding (tested: 300 nM) |  | B8 |
|  | ~6 | B5 |

target: T1, ROR1 expressed on cell surface (Jeko-1 …); assay: cell-based or functional assay; remark: another data set of the same source

| Fold Change of IC50, AMB-LC-0002T/AMB-LC-0003T [fold] | IC50 (nM), spheroid volume after 6 days of treatment, AMB-LC-0003T (high ROR1 expression) [nM] | IC50 (nM), spheroid volume, AMB-LC-0002T (very low ROR1 expression) [nM] | Binder |
| --- | --- | --- | --- |
| 22.7 | 5.38 | 122 | B1 |

target: T7, human ROR1 (human, UniProt Q01973 30-403, limits assumed); assay: ELISA, IgG on coated human ROR1, OD450
T7 construct: also called human ROR1 protein
Procedure: as §3

T7 sequence (Q01973 30-403 limits assumed): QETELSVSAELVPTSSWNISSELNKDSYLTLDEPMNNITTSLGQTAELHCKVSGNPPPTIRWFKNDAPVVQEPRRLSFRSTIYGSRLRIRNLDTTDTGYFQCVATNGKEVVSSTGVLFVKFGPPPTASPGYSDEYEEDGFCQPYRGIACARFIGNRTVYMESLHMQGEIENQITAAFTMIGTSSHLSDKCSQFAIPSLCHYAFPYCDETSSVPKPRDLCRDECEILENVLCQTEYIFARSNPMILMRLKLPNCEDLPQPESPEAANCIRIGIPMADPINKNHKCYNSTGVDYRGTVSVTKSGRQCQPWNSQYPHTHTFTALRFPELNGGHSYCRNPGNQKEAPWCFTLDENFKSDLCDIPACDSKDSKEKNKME

| EC50 (read off the curve) [nM] | Binder |
| --- | --- |
| ~1 | B6 |
| ~1 | B8 |
| ~2 | B4 |
| ~0.5 | B3 |
| ~1 | B5 |

target: T7, human ROR1; assay: SPR (Biacore 3000), human ROR1 on CM5 chip, IgG injected, 1:1 Langmuir
Procedure: (§6) To more quantitatively analyze the binding ability of the anti-ROR1 antibody to ROR1, SPR (surface plasmon resonance) was performed. A Biacore 3000 device (GE Healthcare) was used. Using the amine coupling method, human ROR1 or mouse ROR1 was diluted with 10 mM sodium acetate, pH 4.5 and immobilized on a CM5 sensor chip (GE Healthcare) at 300 response units (RU). The activated portion remaining on the surface of the sensor chip was deactivated by adding 1 M ethanolamine-HCl (pH 8.5).

| Kd [nM] | koff [s⁻¹] | kon [M⁻¹ s⁻¹] | Binder |
| --- | --- | --- | --- |
| 0.845 | 0.00249 | 2.95e+06 | B6 |
| 0.172 | 0.000278 | 1.62e+06 | B2 |
| 0.63 | 0.00264 | 4.18e+06 | B8 |
| 0.0789 | 0.000321 | 4.07e+06 | B7 |
| 3.71 | 0.000202 | 54300 | B4 |
| 0.0912 | 0.000157 | 1.72e+06 | B3 |
| 0.4 | 6.78e-05 | 169000 | B5 |

target: T2, mouse ROR1; assay: SPR (Biacore 3000), mouse ROR1 on CM5 chip, IgG injected, 1:1 Langmuir
Procedure: as §6

| Kd [nM] | koff [s⁻¹] | kon [M⁻¹ s⁻¹] | Binder |
| --- | --- | --- | --- |
| 83.2 | 0.0782 | 940000 | B6 |
| 0.175 | 0.00034 | 1.94e+06 | B2 |
| 230 | 0.129 | 564000 | B8 |
| 0.285 | 0.000356 | 1.25e+06 | B7 |
| 6 | 0.000278 | 46400 | B4 |
| 0.802 | 0.0015 | 1.87e+06 | B3 |
| 0.833 | 0.0001 | 120000 | B5 |

target: T1, ROR1 expressed on cell surface (Jeko-1 …); assay: flow cytometry on AMB-LC-0003T patient-derived lung cancer cells
Procedure: as §1, §2

| EC50 [nM] | Binder |
| --- | --- |
| 0.16 | B2 |
